Assay results published in paper PMC10397247.

Experiments:
4H2859-bH = target: T1, 4H2859-bH; assay: two-hybrid library CCNG1;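 also: natural log of median RNA to DNA barcode read ratio; higher means stronger binding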
T1 chain: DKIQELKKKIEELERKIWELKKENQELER

4H2931-bH = target: T2, 4H2931-bH; assay: two-hybrid library CCNG1;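 also: natural log of median RNA to DNA barcode read ratio; higher means stronger binding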
T2 chain: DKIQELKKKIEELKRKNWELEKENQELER

4H3041-bH = target: T3, 4H3041-bH; assay: two-hybrid library CCNG1;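 also: natural log of median RNA to DNA barcode read ratio; higher means stronger binding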
T3 chain: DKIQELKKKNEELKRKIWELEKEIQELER

4H3297-bH = target: T4, 4H3297-bH; assay: two-hybrid library CCNG1;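 also: natural log of median RNA to DNA barcode read ratio; higher means stronger binding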
T4 chain: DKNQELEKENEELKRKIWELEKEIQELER

4H3364-bH = target: T5, 4H3364-bH; assay: two-hybrid library CCNG1;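 also: natural log of median RNA to DNA barcode read ratio; higher means stronger binding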
T5 chain: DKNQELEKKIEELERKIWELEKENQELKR

4H3381-bH = target: T6, 4H3381-bH; assay: two-hybrid library CCNG1;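 also: natural log of median RNA to DNA barcode read ratio; higher means stronger binding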
T6 chain: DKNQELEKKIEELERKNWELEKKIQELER

4H349-bH = target: T7, 4H349-bH; assay: two-hybrid library CCNG1
T7 chain: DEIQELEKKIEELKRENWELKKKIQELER

4H491-bA = target: T8, 4H491-bA; assay: two-hybrid library CCNG1
T8 chain: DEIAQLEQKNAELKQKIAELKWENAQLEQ

4H56-bH = target: T9, 4H56-bH; assay: two-hybrid library CCNG1
T9 chain: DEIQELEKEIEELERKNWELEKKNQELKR

4H730-bH = target: T10, 4H730-bH; assay: two-hybrid library CCNG1
T10 chain: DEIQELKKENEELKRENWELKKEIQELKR

4H796-bH = target: T11, 4H796-bH; assay: two-hybrid library CCNG1
T11 chain: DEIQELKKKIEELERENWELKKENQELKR

4H932-bH = target: T12, 4H932-bH; assay: two-hybrid library CCNG1
T12 chain: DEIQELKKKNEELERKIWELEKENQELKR

4H949-bH = target: T13, 4H949-bH; assay: two-hybrid library CCNG1
T13 chain: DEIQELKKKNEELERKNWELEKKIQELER

P6mSN = target: T14, P6mSN; assay: two-hybrid library CCNG1
T14 chain: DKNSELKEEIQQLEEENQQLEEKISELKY

P7mSN = target: T15, P7mSN; assay: two-hybrid library CCNG1
T15 chain: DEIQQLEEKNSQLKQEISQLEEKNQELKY

P8mSN = target: T16, P8mSN; assay: two-hybrid library CCNG1
T16 chain: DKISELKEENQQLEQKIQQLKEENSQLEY

P9mSN = target: T17, P9mSN; assay: two-hybrid library CCNG1
T17 chain: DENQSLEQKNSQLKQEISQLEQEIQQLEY

4H1809-AA = target: T18, 4H1809-AA; assay: two-hybrid library CCmax
T18 chain: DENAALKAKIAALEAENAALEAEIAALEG

4H1854-AA = target: T19, 4H1854-AA; assay: two-hybrid library CCmax; details: mean of both orientations
T19 chain: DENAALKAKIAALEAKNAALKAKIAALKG

4H189-AA = target: T20, 4H189-AA; assay: two-hybrid library CCmax; details: mean of both orientations
T20 chain: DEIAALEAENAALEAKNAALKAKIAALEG

4H2248-AA = target: T21, 4H2248-AA; assay: two-hybrid library CCmax; details: mean of both orientations
T21 chain: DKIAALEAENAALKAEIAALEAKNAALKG

4H2283-AA = target: T22, 4H2283-AA; assay: two-hybrid library CCmax; details: mean of both orientations
T22 chain: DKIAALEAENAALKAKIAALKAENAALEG

4H2713-AA = target: T23, 4H2713-AA; assay: two-hybrid library CCmax; details: mean of both orientations
T23 chain: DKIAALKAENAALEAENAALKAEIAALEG

4H2742-AA = target: T24, 4H2742-AA; assay: two-hybrid library CCmax; details: mean of both orientations
T24 chain: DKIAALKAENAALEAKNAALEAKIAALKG

4H2948-AA = target: T25, 4H2948-AA; assay: two-hybrid library CCmax; details: mean of both orientations
T25 chain: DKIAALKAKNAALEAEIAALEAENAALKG

4H2991-AA = target: T26, 4H2991-AA; assay: two-hybrid library CCmax; details: mean of both orientations
T26 chain: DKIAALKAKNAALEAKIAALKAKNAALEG

4H3029-AA = target: T27, 4H3029-AA; assay: two-hybrid library CCmax; details: mean of both orientations
T27 chain: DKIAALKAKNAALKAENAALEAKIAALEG

4H3066-AA = target: T28, 4H3066-AA; assay: two-hybrid library CCmax; details: mean of both orientations
T28 chain: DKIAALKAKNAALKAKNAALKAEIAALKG

4H3102-AA = target: T29, 4H3102-AA; assay: two-hybrid library CCmax; details: mean of both orientations
T29 chain: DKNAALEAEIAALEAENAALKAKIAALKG

4H3121-AA = target: T30, 4H3121-AA; assay: two-hybrid library CCmax; details: mean of both orientations
T30 chain: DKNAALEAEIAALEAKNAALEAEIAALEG

4H3417-AA = target: T31, 4H3417-AA; assay: two-hybrid library CCmax; details: mean of both orientations
T31 chain: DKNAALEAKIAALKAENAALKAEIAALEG

4H3446-AA = target: T32, 4H3446-AA; assay: two-hybrid library CCmax; details: mean of both orientations
T32 chain: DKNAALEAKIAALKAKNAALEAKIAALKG

4H3591-AA = target: T33, 4H3591-AA; assay: two-hybrid library CCmax; details: mean of both orientations
T33 chain: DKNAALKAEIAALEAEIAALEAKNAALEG

4H3628-AA = target: T34, 4H3628-AA; assay: two-hybrid library CCmax; details: mean of both orientations
T34 chain: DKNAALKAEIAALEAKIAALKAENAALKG

4H3666-AA = target: T35, 4H3666-AA; assay: two-hybrid library CCmax; details: mean of both orientations
T35 chain: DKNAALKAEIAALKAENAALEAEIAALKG

4H3709-AA = target: T36, 4H3709-AA; assay: two-hybrid library CCmax; details: mean of both orientations
T36 chain: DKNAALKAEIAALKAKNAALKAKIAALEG

4H391-AA = target: T37, 4H391-AA; assay: two-hybrid library CCmax; details: mean of both orientations
T37 chain: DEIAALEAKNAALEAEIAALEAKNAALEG

4H3920-AA = target: T38, 4H3920-AA; assay: two-hybrid library CCmax; details: mean of both orientations
T38 chain: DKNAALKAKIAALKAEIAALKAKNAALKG

4H3939-AA = target: T39, 4H3939-AA; assay: two-hybrid library CCmax; details: mean of both orientations
T39 chain: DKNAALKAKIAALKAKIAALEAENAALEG

4H428-AA = target: T40, 4H428-AA; assay: two-hybrid library CCmax; details: mean of both orientations
T40 chain: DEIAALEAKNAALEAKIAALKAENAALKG

4H478-AA = target: T41, 4H478-AA; assay: two-hybrid library CCmax; details: mean of both orientations
T41 chain: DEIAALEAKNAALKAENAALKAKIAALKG

4H497-AA = target: T42, 4H497-AA; assay: two-hybrid library CCmax; details: mean of both orientations
T42 chain: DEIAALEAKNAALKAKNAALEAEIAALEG

4H656-AA = target: T43, 4H656-AA; assay: two-hybrid library CCmax; details: mean of both orientations
T43 chain: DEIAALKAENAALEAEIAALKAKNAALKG

4H675-AA = target: T44, 4H675-AA; assay: two-hybrid library CCmax; details: mean of both orientations
T44 chain: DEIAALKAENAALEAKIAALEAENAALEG

4H971-AA = target: T45, 4H971-AA; assay: two-hybrid library CCmax; details: mean of both orientations
T45 chain: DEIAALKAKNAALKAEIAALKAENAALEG

An interaction score (4H2859-bH) of 1.11, an interaction score (4H2931-bH) of -0.182 and an interaction score (4H3041-bH) of 1.2 were found for DKIQELKKKIEELERKIWELKKENQELER [4H2859-bH] in this work. For the same binder, the interaction score (4H3297-bH) was 0.299, the interaction score (4H3364-bH) was 1.02 and the interaction score (4H3381-bH) was 0.199. The interaction score (4H349-bH) was -0.11, the interaction score (4H491-bA) was 1.08 and the interaction score (4H56-bH) was 0.547. The interaction score (4H730-bH) was -0.682, the interaction score (4H796-bH) was -0.548 and the interaction score (4H932-bH) was -0.5. It also gave an interaction score (4H949-bH) of -1.01.

An interaction score (P6mSN) of 0.276, an interaction score (P7mSN) of -0.951 and an interaction score (P8mSN) of -1.19 were found for DKNSELKEEIQQLEEENQQLEEKISELKY [P6mSN] in this work. It also gave an interaction score (P9mSN) of -0.248.

An interaction score (4H1809-AA) of -0.349, an interaction score (4H1854-AA) of 2.32 and an interaction score (4H189-AA) of -0.354 were found for DENAALKAKIAALEAENAALEAEIAALEG [4H1809-AA] in this work. The interaction score (4H2248-AA) was -0.294, the interaction score (4H2283-AA) was 1.16 and the interaction score (4H2713-AA) was -1.63. The interaction score (4H2742-AA) was -1.29, the interaction score (4H2948-AA) was -1.16 and the interaction score (4H2991-AA) was -0.235. For the same binder, the interaction score (4H3029-AA) was -2.28, the interaction score (4H3066-AA) was 0.194 and the interaction score (4H3102-AA) was 2.27. It also gave an interaction score (4H3121-AA) of -1.18, an interaction score (4H3417-AA) of -0.579 and an interaction score (4H3446-AA) of 1.42. It also gave an interaction score (4H3591-AA) of -1.94, an interaction score (4H3628-AA) of -1.29 and an interaction score (4H3666-AA) of -1.2. For the same binder, the interaction score (4H3709-AA) was 1.51, the interaction score (4H391-AA) was -1.47 and the interaction score (4H3920-AA) was -0.86. For the same binder, the interaction score (4H3939-AA) was -1.45, the interaction score (4H428-AA) was -0.837 and the interaction score (4H478-AA) was 0.898. The interaction score (4H497-AA) was -1.51, the interaction score (4H656-AA) was -1.1 and the interaction score (4H675-AA) was -1.74. The interaction score (4H971-AA) was 0.362.
